Data taken from patent US20190071489A1.
Several values for one entry are separate records, joined by “and”; a condition that tells them apart may be missing. Equal values may be shown once.

How the values were obtained:
[1] = molecular target: EBOV GP (Ebola virus , Mayinga) (UniProt Q05320); assay: cell-based or functional assay
[2] = molecular target: EBOV GP (Ebola virus , Mayinga) (UniProt Q05320)
[3] = molecular target: EBOV GP (Ebola virus , Mayinga) (UniProt Q05320); remark: listed apart in the source

Chain of UniProt Q05320 (Q05320 33-501, chain 1 of 2): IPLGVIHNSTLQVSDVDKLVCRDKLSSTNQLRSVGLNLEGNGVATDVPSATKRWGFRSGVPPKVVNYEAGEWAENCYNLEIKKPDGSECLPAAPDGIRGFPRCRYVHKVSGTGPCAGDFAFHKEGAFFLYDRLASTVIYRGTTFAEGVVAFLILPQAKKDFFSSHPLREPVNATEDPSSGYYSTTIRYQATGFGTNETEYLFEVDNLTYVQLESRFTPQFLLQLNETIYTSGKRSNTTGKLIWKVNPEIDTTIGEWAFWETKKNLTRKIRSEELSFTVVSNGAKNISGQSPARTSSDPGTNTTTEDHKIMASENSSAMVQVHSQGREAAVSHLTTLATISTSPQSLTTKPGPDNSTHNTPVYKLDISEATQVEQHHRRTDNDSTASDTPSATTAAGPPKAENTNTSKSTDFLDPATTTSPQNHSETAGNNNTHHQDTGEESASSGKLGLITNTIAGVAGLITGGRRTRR
Chain of UniProt Q05320 (Q05320 502-650, chain 2 of 2): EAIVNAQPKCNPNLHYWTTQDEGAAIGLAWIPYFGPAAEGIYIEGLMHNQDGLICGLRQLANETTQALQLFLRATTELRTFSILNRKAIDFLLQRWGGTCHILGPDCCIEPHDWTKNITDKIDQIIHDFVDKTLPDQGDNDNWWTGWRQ

## 13C6 (antibody)
[1]
  neutralization at 10 µg/mL: < 20%

## KZ52 (antibody)
[1]
  maximum inhibition of input virus: 80% and 90%

B1: EVB100 (antibody, V domains shown)
VH: QVQLQESGPGLVKPSDTLSLTCTVSGGSLSSFYWSWIRQPPGKGLEWIGYIYYSGSPNYSPSLESRVTMSVDTTRNQISLKLDSVTAADTAVYYCVRASRSYYWGSYRPTAFDSWGQGTLVTVSS
VL: SYELTQPLSVSVSPGQTAIFTCSGDNLGDKYVCWFQQRPGQSPMLLIYQDNKRPSGIPERFSGSNSGNTATLTISGTQSTDEADYYCQTWDSTVVFGGGTKLTVL
[2]
  EC50: 0.26 µg/mL
[1]
  maximum inhibition of input virus: 100%

B2: EVB114 (antibody, V domains shown)
VH: EVQLVESGGGLIQPGGSLRLSCAASGFALRMYDMHWVRQTIDKRLEWVSAVGPSGDTYYADSVKGRFAVSRENAKNSLSLQMNSLTAGDTAIYYCVRSDRGVAGLFDSWGQGILVTVSS
VL: DIQMTQSPSSLSASVGDRITITCRASQAFDNYVAWYQQRPGKVPKLLISAASALHAGVPSRFSGSGSGTHFTLTISSLQPEDVATYYCQNYNSAPLTFGGGTKVEIK
[2]
  EC50: 0.07 µg/mL
  maximal binding, higher than the other antibodies: 100%
[1]
  maximum inhibition of input virus: 100%

B3: EVB167 (antibody, V domains shown)
VH: AVQLVQSGAEVKKPGTTVKISCKVSGYTFIQEYIHWVQQAPGKGLVWMGLGDPENNETLYSEDFQGRVTMTADTSSDTAYLELRSLTFADTAVYFCTSRKSWWGQGTLVTVAS
VL: ELVLTQSPGTLSLSPGESATLSCRASQSLSSDSVSWFQQKPGQAPRLVIHGTSKRATGIPDRFSGGGSGTDFTLTIARLEPEDFAVYYCQRSGYGMSVTWTFGQGTTVEIK
[3]
  Abs 450 (1/27): 2.97 Abs 450
  Abs 450 (Und.): 3.37 Abs 450

B4: EVB165 (antibody, V domains shown)
VH: DVQLVESGGGVVQPGGSLKLACVVSGFRFSDYWMSWVRQAPGKGLEWVANIKQDGSGKYYVDSVKGRFTVSRDNAKNSLYLHMTSLGAEDTAVYFCARAAPTGSYTNILVDNVHFDYWGQGILVAVSS
VL: GIQLTQSPGSLSASVGDSVTITCRPNQNIATYINWYQQTPGKAPKLLIYAASILQSGVPSRFSGAGSGTHFTLIISTLQPEDSATYYCQQSYSTPWTFGQGTKVEIK
[3]
  Abs 450 (1/27): 1.72 Abs 450
  Abs 450 (Und.): 3.17 Abs 450
[2]
  EC50: > 1 µg/mL
[1]
  maximum inhibition of input virus: 100%
